Laboratory results published in US20180142032A1 (Sanofi, published 2018).
Values joined by “and” are separate entries in the source; they are usually repeats but may differ in a detail not shown here. Identical values can stand only once.

Legend:
[1] = biological target: T1, human LAMP1 at the cell surface (human, UniProt P11279 29-417); experiment: cell-based or functional assay
T1 sequence: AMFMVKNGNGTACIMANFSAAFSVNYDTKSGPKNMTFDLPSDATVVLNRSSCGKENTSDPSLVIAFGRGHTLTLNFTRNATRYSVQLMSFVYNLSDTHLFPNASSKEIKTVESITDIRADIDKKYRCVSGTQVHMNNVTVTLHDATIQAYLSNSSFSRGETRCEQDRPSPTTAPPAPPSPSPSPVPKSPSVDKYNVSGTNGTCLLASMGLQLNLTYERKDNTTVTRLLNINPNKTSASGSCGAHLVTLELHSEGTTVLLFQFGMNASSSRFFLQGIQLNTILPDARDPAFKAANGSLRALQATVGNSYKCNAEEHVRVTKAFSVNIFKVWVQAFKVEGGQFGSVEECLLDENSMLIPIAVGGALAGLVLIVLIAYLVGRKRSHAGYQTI

[2] = biological target: T1, human LAMP1 at the cell surface; experiment: cell-based or functional assay; remark: listed apart in the source
[3] = biological target: T1, human LAMP1 at the cell surface; experiment: flow cytometry, HCT116 stable clone
Text: (§1) HCT116 stable clone was obtained as described above. HEK293 cells were infected by a lentiviral vector allowing stable integration of the human or the cynomolgus LAMP1 CDS in genomic DNA of cells. Individual clones with different densities of cynomolgus LAMP1 cell surface localization were derived from a pool of HEK293 infected cells. Protocol as described in example above. EC₅₀ values were estimated using BIOST@T-SPEED software.

[4] = biological target: T2, cynomolgus monkey LAMP1 at the cell surface (cynomolgus monkey, UniProt P11279 29-417 (human entry)); experiment: flow cytometry, HEK293 stable clone
T2 construct: also called cynoLAMP1; cynomolgus LAMP1
T2 chain: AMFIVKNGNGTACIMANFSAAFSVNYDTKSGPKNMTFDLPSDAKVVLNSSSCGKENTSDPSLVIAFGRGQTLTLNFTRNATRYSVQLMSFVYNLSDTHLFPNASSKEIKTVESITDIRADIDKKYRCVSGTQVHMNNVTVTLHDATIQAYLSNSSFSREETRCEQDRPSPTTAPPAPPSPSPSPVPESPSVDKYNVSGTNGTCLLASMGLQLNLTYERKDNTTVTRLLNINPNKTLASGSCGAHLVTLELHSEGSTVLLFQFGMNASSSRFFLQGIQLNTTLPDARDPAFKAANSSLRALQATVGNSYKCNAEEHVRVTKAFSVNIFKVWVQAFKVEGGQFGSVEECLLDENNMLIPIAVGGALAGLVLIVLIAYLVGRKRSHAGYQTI
Text: as §1

mLAMP1_ΔGYQTI = biological target: T3, mLAMP1_ΔGYQTI (mouse, UniProt P11438 25-369); experiment: flow cytometry, transfected 293-F cells
T3 construct: on cells; also called pXL6009; murine LAMP1; not shown: murine transmembrane domain and cytoplasmic tail with GYQTI replaced by 5 Ala
T3 sequence: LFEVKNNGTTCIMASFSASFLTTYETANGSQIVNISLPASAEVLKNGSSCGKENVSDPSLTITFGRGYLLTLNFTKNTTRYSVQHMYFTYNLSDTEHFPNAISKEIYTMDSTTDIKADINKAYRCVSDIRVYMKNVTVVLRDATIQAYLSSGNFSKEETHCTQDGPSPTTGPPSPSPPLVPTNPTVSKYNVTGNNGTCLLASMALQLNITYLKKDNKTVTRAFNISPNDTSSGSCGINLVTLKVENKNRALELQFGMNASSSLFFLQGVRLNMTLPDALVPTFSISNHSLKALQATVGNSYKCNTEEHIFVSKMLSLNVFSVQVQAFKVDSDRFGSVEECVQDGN

LAMP1_mseq4_ΔGYQTI = biological target: T4, LAMP1_mseq4_ΔGYQTI (human; mouse); experiment: flow cytometry, transfected 293-F cells
T4 construct: on cells; also called pXL6015

[5] = biological target: T1, human LAMP1 at the cell surface; experiment: flow cytometry, transiently transfected HEK293 cells
Text: (§2) LAMP1 Coding DNA Sequence, RefSeq NM_005561.3 (SEQ ID NO: 23) was cloned internally. The CDS of Macaca mulatta LAMP1, RefSeq XP_001087801 (SEQ ID NO: 27) was also cloned internally. […] Therefore the secreted LAMP1 used in the following example is referred to cynomolgus monkey. Both CDS were cloned into mammalian expression plasmids under CMV enhancer/promoter and SV40 polyA signals. HEK293 cells (Invitrogen; #K9000-10.) were transiently transfected with human LAMP1 or cynomolgus LAMP1 plasmids using FreeStyle™ MAX 293 Expression System according to the manufacturer's instructions. […] 100 μL/well of goat anti-mouse IgG conjugated with Alexa647 (Invitrogen; # A2135) was added for 45 min at 4° C. and washed three times with PBS 1% BSA. The antibody binding was evaluated after centrifugation and resuspension of cells by adding 200 μl/well PBS 1% BSA and read using Guava® easyCyte™ 8HT Flow Cytometry System. EC50 values were estimated using BIOST@T-SPEED software.

[6] = biological target: T2, cynomolgus monkey LAMP1 at the cell …; experiment: as above
Text: as §2

[7] = biological target: T1, human LAMP1 at the cell surface; experiment: flow cytometry, dissociated CR-IGR-034P colon PDX cells; CR-IGR-034P colon tumor cells
Procedure: Advanced human primary colon tumor CR-IGR-034P was obtained from Patient-derived xenograft in mice. Tumor CR-IGR-034P was enzymatically dissociated using collagenase Type IV (Invitrogen; #17104-019) and deoxyribonuclease I (Invitrogen; #18047-019) for 1 h at 4° C. Cell viability was estimated by Viacount application using Guava® easyCyte™ 8HT Flow Cytometry System. […] 100 μL/well of goat anti-mouse IgG conjugated with Alexa647 (Invitrogen; # A2135) or goat anti-human IgG conjugated with Alexa488 (Invitrogen; # A11013) was added for 45 min at 4° C. and washed three times with PBS 1% BSA. The antibody binding was evaluated after centrifugation and resuspension of cells by adding 200 μl/well PBS 1% BSA and read using Guava® easyCyte™ 8HT Flow Cytometry System. EC50 values were estimated using BIOST@T-SPEED software.

B1: huMAb1_1 (antibody, human IgG1, kappa)
heavy: not shown
light: DIQMTQSPSSLSASVGDRVTITCKASQDIDRYMAWYQDKPGKAPRLLIHDTSTLQSGVPSRFSGSGSGRDYTLTISNLEPEDFATYYCLQYDNLWTFGGGTKVEIKRTVAAPSVFIFPPSDEQLKSGTASVVCLLNNFYPREAKVQWKVDNALQSGNSQESVTEQDSKDSTYSLSSTLTLSKADYEKHKVYACEVTHQGLSSPVTKSFNRGEC
notes: humanized, VH1-huIgG1 and VL1-huCk
ADCP EC50, 3/1, batch 67130713495 [1]: 0.47 nM and 0.36 nM | ADCP EC50, 3/1, batch 67131354967 [1]: 0.5 nM | ADCP EC50, 3/1, batch 67131617470 [1]: 0.56 nM | ADCP EC50, 6/1, batch 67130713495 [1]: 0.98 nM and 0.34 nM | ADCP EC50, macrophages/target 3/1, batch 67131617438 [1]: 0.28 nM | ADCP Mean EC50, HCT116 huLAMP1 clone 4, antigen density 20 000 [2]: 0.73 nM | ADCP Mean EC50, HCT116 huLAMP1 clone 5, antigen density 300 000 [2]: 0.33 nM | ADCP Mean EC50, HCT116 huLAMP1 clone 8, antigen density 100 000 [2]: 0.43 nM | ADCP Mean EC50, HCT116 huLAMP1 clone 12, antigen density 2500 [2]: 0.65 nM

B2: MAb3 (antibody, V domains shown)
VH: QIQLVQSGPELKKPGETVKISCKASGYIFTNYGMNWVKQAPGKGLKWMGWINTYTGESRYADDFKGRFALSLETSASTAYLQINNLENEDMATYFCAREDYYGNSPWFFDVWGAGTTVTVSS
VL: DIQMTQTTSSLSASLGDRVTISCNASQGINKYLNWYQQKPDGTVKLLIYYTSTLHSGVPSRFSGSGSGTDYSLTINNLEPEDIATYYCQQYTKLPFTFGSGTKLEIK
notes: murine monoclonal IgG, kappa, from hybridoma; also called murine MAb3
EC50 [3]: 7.6 nM | EC50 [4]: 4 nM | binding result (mLAMP1_ΔGYQTI): no binding

B3: MAb1 (antibody, mouse IgG2a, kappa)
heavy: QVQLQQSGAELVKPGASVKMSCKASGYIFTNYNIHWVKKSPGQGLEWIGAIYPGNGDAPYSQKFKDKATLTADKSSSTTYMQLSRLTSEDSAVYYCVRANWDVAFAYWGQGTLVSVSAAKTTAPSVYPLAPVCGDTTGSSVTLGCLVKGYFPEPVTLTWNSGSLSSGVHTFPAVLQSDLYTLSSSVTVTSSTWPSQSITCNVAHPASSTKVDKKIEPRGPTIKPCPPCKCPAPNLLGGPSVFIFPPKIKDVLMISLSPIVTCVVVDVSEDDPDVQISWFVNNVEVHTAQTQTHREDYNSTLRVVSALPIQHQDWMSGKEFKCKVNNKDLPAPIERTISKPKGSVRAPQVYVLPPPEEEMTKKQVTLTCMVTDFMPEDIYVEWTNNGKTELNYKNTEPVLDSDGSYFMYSKLRVEKKNWVERNSYSCSVVHEGLHNHHTTKSFSRTPGK
light: DIQMTQSPPSLSASLGGKVTITCKASQDIDRYMAWYQDKPGKGPRLLIHDTSTLQPGIPSRFSGSGSGRDYSFSISNLEPEDIATYYCLQYDNLWTFGGGTKLEIKRADAAPTVSIFPPSSEQLTSGGASVVCFLNNFYPKDINVKWKIDGSERQNGVLNSWTDQDSKDSTYSMSSTLTLTKDEYERHNSYTCEATHKTSTSPIVKSFNRNEC
notes: murine monoclonal IgG, kappa, from hybridoma; also called murine MAb1
mean fluorescence (LAMP1_mseq4_ΔGYQTI): 891 | EC50 [5]: 14 nM | EC50 [6]: 44 nM | EC50 [7]: 5 nM
